expression_or_secretion data for five substances are collected here from PMC10571791.

Data set [1] is described as follows: cell-surface flow cytometry, MDA-MB-231. (In general: A flow cytometer gives signals particle by particle.)
The nature of data set [2]: cell-surface flow cytometry, MCF-7.
The mark [3] stands for this setting: glycan lost, control: WT-PD-L1 MDA cells.
[4] abbreviates: glycan lost, control: WT-PD-L1 MCF-7 cells.

As for PD-L1: N35A-PD-L1, the expression_or_secretion result in data set [1] (setting [3]) and in data set [2] (setting [4]) was “no change” each time.

Take PD-L1: N219A-PD-L1: the expression_or_secretion entry in data set [1] (setting [3]) and in data set [2] (setting [4]) was “no change” throughout.

On to PD-L1: N200A-PD-L1, for which the expression_or_secretion entry in data set [1] (setting [3]) and in data set [2] (setting [4]) was “no change” each time.

For PD-L1: kifunensine, the expression_or_secretion result in data set [1] (glycan changed form, control: vehicle-treated WT-PD-L1 MDA cells) is “no change”; in data set [2] (glycan changed form, control: vehicle-treated WT-PD-L1 MCF-7 cells), “no change”.

As to PD-L1: N192A-PD-L1, the expression_or_secretion entry in data set [1] (setting [3]) and in data set [2] (setting [4]) was “no change” throughout.
